# Laboratory results published in publication PMC6345808, “Molecular structure and function of myelin protein P0 in membrane stacking” (Scientific Reports, 2019).
# B1: full-length myelin protein zero (P0) from bovine peripheral myelin (natural protein, UniProt P10522 29-248, looked up)
# chain: AIVVYTDKEVHGAVGSQVTLYCSFWSSEWVSDDLSFTWRYQPEGGRDAISIFHYAKGQPYIDEVGTFKERIQWVGDPHRKDGSIVIHNLDYGDNGTFTCDVKNPPDIVGKTSQVTLYVFEKVPTRYGVVLGAVIGGVLGVVLLALLLFYLIRYCWLRRQAALQRRLSAMEKGKLHKTAKDASKRGRQTPVLYAMLDHSRSTKAASEKKTKGLGESRKDKK
# modifications: N-linked glycan structures belonging to hybrid types
# notes: myelin protein zero (P0, MPZ), bovine, native protein from the raft fraction of peripheral myelin; Oligomeric state depended on detergent: tetramer in DPC, dimer in LDAO; also called MPZ; full-length P0
# Legend:
# [1] = target: the molecule itself; test: SEC-MALS; full-length P0 in 0.1% DPC micelles, Superdex 200, 250 mM sodium phosphate pH 8.0, 1 mM EDTA; protein conjugate analysis
# [2] = target: the molecule itself; test: SEC-MALS; full-length P0 in 0.1% LDAO micelles, Superdex 200, 250 mM sodium phosphate pH 8.0, 1 mM EDTA; protein conjugate analysis
protein,measurement,setting,value
B1,stoichiometry N,[1],4
same,stoichiometry N,[2],2
